The values that follow come from paper PMC11290353.

For this experiment, the target named is RNA Pol II large subunit (CTD) (UniProt P08775). In words: HA IP; blot Pol II S5P, S2P. The following applies: reference: HA-CMTR1 wild type; sites S26,S28,T30,S31,S46,S49,S51,S53,S55,T57,S63,S64,S66,S75,S89.

As to “CMTR1 (from UniProt Q8N1G2) HA-CMTR1 15A”, the “binding against the reference” value is listed as “weaker”.
